Source: article PMC7251212

Biological target: recombinant TdfH (Neisseria gonorrhoeae TonB-dependent transporter, NGO0952) (Neisseria gonorrhoeae)
Test: ITC; Nano ITC, 25°C, 1x PBS with 0.05% DDM; TdfH (300 μl, 20 μM) in the cell, CP sample (200 μM) in 20 injections of 2.5 μl; fitted with NanoAnalyze to a two-state (multisite) model, TKO to a single-site model

mouse calprotectin (heterodimer of mouse S100A8 and S100A9) (from UniProt P27005 1-89; P31725 1-113) (complex)
KD, higher affinity (two-state model): 0.72 µM
KD, lower affinity (two-state model): 51 µM
